This is an account of results in PMC2919855 (Biochemistry, 2010).

Assay [1] addresses T1, rhodopsin in rod outer segments (ROS) (Bos taurus, UniProt P02699). The assay is described as follows: Meta II. Type of assay: biochemical. The following applies: result in words.
Assay [2] has as its target photoactivated rhodopsin (R*) in ROS membranes (Bos taurus, UniProt P02699). Description: Direct binding by EPR: spectral integration of bound and free peptide components.
Assay [3] concerns the target rhodopsin in rod outer segment (ROS) membranes (UniProt P02699). The assay is described as follows: EPR spectroscopy.
The target is the same in assay [4]. Description: Meta II stabilization assay.
For assay [5] the target is unchanged. The assay is described as follows: time-resolved EPR after a laser flash.
In assay [6] the target is T1, rhodopsin in rod outer segments (ROS). The following applies: cited from earlier work.

Non-standard residues stand in square brackets, D forms with d. Residues, ends and D or L forms follow the SMILES beside them. No end group written: not given here. *: point of attachment. Proxyl = 3-carboxy-2,2,5,5-tetramethylpyrrolidinyloxy spin label; TOAC = CC1(C)CC(N)(C(=O)O)CC(C)(C)N1[O]; X1 = CC1(C)CC(C(=O)*)C(C)(C)N1[O]; Aib = CC(C)(N)C(=O)O

T1 sequence (P02699 whole entry): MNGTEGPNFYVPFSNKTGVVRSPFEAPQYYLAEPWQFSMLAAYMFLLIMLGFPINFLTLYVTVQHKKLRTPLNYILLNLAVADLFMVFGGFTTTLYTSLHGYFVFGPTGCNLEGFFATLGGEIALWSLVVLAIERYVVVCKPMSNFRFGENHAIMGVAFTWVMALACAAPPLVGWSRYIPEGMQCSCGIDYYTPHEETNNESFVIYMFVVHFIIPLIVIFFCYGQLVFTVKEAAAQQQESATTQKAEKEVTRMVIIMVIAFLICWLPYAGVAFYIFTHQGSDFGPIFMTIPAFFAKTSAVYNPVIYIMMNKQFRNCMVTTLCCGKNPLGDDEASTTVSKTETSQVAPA
Chain of rhodopsin in rod outer segment (ROS) membranes (P02699 whole entry): as above
Chain of photoactivated rhodopsin (R*) in ROS membranes (P02699 whole entry): as above

Broadly, the Kd is the equilibrium constant for the complex coming apart. As to `CC(C)C[C@H](NC(=O)[C@H](CC(=O)O)NC(=O)[C@H](CCC(=O)O)NC(=O)[C@H](CC(C)C)NC(=O)[C@@H](NC(=O)C1CC(C)(C)N([O])C1(C)C)C(C)C)C(=O)N[C@@H](CCCCN)C(=O)N[C@@H](CO)C(=O)N[C@@H](CS)C(=O)NC1(C(=O)N[C@@H](CC(C)C)C(=O)N[C@@H](Cc2ccccc2)C(=O)O)CC(C)(C)N([O])C(C)(C)C1` (stereo partly drawn) [Proxyl/TOAC^348-Gtα(340–350)] (X1-VLEDLKSC[TOAC]LF-OH), the “ability to stabilize the MII state of rhodopsin” value (from here on “ability”) in assay [1] was “retained the ability to stabilize the MII state”. This molecule registered a Kd in assay [2] of 65 µM.
Consider “IKE-TOAC-LKDCGLF [TOAC^343-Gtα(340–350)]”, for which the “ability” value in assay [1] is “retained the ability to stabilize the MII state”.
“Proxyl-Gtα(340–350) high-affinity peptide” came in with a Kd in assay [3] of 4 µM. This lies in the single-digit micromolar range.
Take “Proxyl-Gtα(340–350): Gtα(340–350) with Proxyl spin label at the amino terminus (Proxyl-IKENLKDCGLF)”: the “ability” value in assay [1] was “retained the ability to stabilize the MII state”.
With “TOAC^343-Gtα(340–350) high-affinity peptide”, the Kd in assay [4] is 10 µM; in assay [3], 12.5 µM. In assay [5], this molecule displayed a lifetime of binding after the flash (single exponential) of 5.8 ms.
Turning to [Aib]K[Aib][Aib]LKDCGLG, the “activity in stabilization of the MII state of rhodopsin” value in assay [6] was “full activity”.
